Usually Km stands for the substrate concentration at which the rate is half of its maximum. As usually defined, the kcat is the number of substrate molecules converted per active site and unit of time at saturation.

This is an account of results in paper doi:10.64898/2025.12.18.695077v1.

In this data set the test system is O=P(O)(OC[C@@H](O)CO)OC[C@@H](O)CO. Description: purified protein. To be noted: co-substrate C22:6-CoA 100 uM, pH 7.4, 37 C, 0.05% LMNG.

Take “CLN8 (FLAG-STREP-tagged, purified from human Flp-In T-REx 293 cells) (Homo sapiens)”: the Km worked out at 570 µM and the kcat was 0.8022 s⁻¹.
